The assay addresses T1, CXCR2 (human, UniProt P25025 1-360).
T1 construct: whole, on cells
T1 sequence (looked up): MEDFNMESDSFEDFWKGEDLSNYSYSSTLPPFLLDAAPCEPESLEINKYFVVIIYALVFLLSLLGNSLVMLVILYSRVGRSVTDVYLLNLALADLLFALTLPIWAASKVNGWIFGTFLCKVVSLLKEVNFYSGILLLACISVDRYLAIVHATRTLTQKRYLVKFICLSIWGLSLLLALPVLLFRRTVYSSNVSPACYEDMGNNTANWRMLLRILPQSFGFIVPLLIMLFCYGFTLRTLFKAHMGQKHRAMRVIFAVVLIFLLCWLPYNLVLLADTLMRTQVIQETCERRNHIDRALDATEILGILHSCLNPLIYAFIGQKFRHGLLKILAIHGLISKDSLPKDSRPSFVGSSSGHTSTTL
As to the kind of experiment: flow cytometry (GMFI) on fixed CXCR2 cells, chimeric antibody, goat anti-human PE. How it is done:
To determine the specificity of the antibodies for CXCR5, the binding of the antibodies to cells expressing other […] was assessed. Briefly, FlowCellect chemokine receptor cell lines expressing CXCR1, CXCR2, or CXCR3 (EMD Millipore, Billerica, Mass.), and Jurkats (ATCC, Manassas, Va.), which express CXCR4, were stained with 5 μg/ml or 10 μg/ml of each anti-CXCR5 chimeric antibody. The cells were then incubated with goat anti-human conjugated with PE (Southern Biotech, Birmingham, Ala.) prior to analysis by flow cytometry using a FACSVerse Analyzer (BD Biosciences, Franklin Lakes, N.J.).

B1: Chimeric 11G2 (antibody, human IgG1, kappa, V domains shown)
VH: EVKLVESGGGLVQPGGSLRLSCATSGFTFTDFYMSWVRQPPGRALEWLGFIRNKANGYTTEYSASVKGRFTISRDNSQSILYLQMNTLRAGDSATYYCVRVYGSTLHYWGQGTILTVSS
VL: DVVVTQSPDSLAVSLGQRATISCRASESVEYHGTSLMHWYQQKPGQPPKLLIYAASNVESGVPARFSGSGSGTDFSLNIHPVEEGDIAMYFCQQSRKVPWTFGGGTKLEIKR
notes: mouse V regions on human IgG1/kappa; also called 11G2 (chimeric)
With B1, the binding result is “no binding (tested: 5 or 10 µg/ml (not on the sheet))”.

The record behind these values is patent US20210101970A1 (Pfizer, published 2021).
